Reference: the nanobody polyreactivity screen of Harvey et al. (2022)

Assay: yeast display, Sf9 membrane polyspecificity reagent, FACS + sequencing; frameworks hold sequencing errors
Outline: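 In a synthetic yeast display library (Saccharomyces cerevisiae BJ5465), nanobody expression was induced with galactose for 36–48 hours. FACS gates were set low and high (top ~1%) using anti-HA fluorescence for expression and streptavidin fluorescence for binding of the Sf9 membrane reagent. Each polyreactivity label is drawn from the gate of origin.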

Row | Sequence | polyreactivity (PSR sort gate)
1 | QVQLVESGGGLVQAGGSLRLSCAASGNIFGYYAMGWYRQAPGKERELVAAIRTRGGRTYYADSVKGRFTISRDNAKNTVYLQMNSLKPEDTAVYYCAARSIAGFWRYDYWGQGTQVTVSS | high polyreactivity
2 | QVQLVESGGGLVQAGGSLRLSCAASGNIFGYYAMGWYRQAPGKERELVAAITTTGGSTYYADSVKGRFTISRDNAKNTVYLQMNSLKPEDTAVYYCAAETGYWYYYWGQGTLVTVSS | high polyreactivity
3 | QVQLVESGGGLVQAGGSLRLSCAASGNIFHFYAMGWYRQAPGKERELVATISWRGDGTYYADSVKGRFTISRDNAKYTVYLQMNSLKPEDTAVYYCAARGVWPEYDYWGQGTQVTVSS | low polyreactivity
4 | QVQLVESGGGLVQAGGSLRLSCAASGNIFIYNAMGWYRQAPGKERELVAAISVSGGDTYYADSVKGRFTISRDNAKNTVYLQMNSLKPEDTAVYYCAAEAEYIELDYWGQGTQVTVSS | low polyreactivity
5 | QVQLVESGGGLVQAGGSLRLSCAASGNIFLRYAMGWYRQAPGKERELVAAISYSGGGSTYYADSVKGRFTISRDNAKNTVYLQMNSLKPEDTAVYYCAKVLTSRTQFFDYDYWGQGTQVSVSS | low polyreactivity
6 | QVQLVESGGGLVQAGGSLRLSCAASGNIFLYYAMGWYRQAPGKERELVADIDSSGASTYYADSVKGRFTISRDNAKNTVYLQMNSLKPEDTAVYYCATEDFRTDTGMYYWGQGTQVTVSS | low polyreactivity
7 | QVQLVESGGGLVQAGGSLRLSCAASGNIFLYYAMGWYRQAPGKERELVADIDSSGASTYYADSVKGRFTISRDNAKNTVYLQMNSLKPEDTAVYYGAKDSNRYSYYSPYDSWGQGTQVTVSS | low polyreactivity
8 | QVQLVESGGGLVQAGGSLRLSCAASGNIFPAYVMGGYRQAPGKDRELVAAITDSDGSTFYADSVKGRFTISRDNAKNTVYLQMNSLKAEDTAVYYCAAYSYRQGWGFGYWGQGTQVTVSS | low polyreactivity
9 | QVQLVESGGGLVQAGGSLRLSCAASGNIFPYYAMGWYRQAPGKERELVASITWSGGRTYYADSVKGRFTISRDNAKNTVYLQMNSLKPEDTAVYYCARRRVYRWYTGDYWGQGTQVTVSS | low polyreactivity
10 | QVQLVESGGGLVQAGGSLRLSCAASGNIFPYYAMGWYRQAPGKERELVAVISYGGGNTRYADSVKGRFTISRDNAKNTVYLQMNSLIPEDTAVYYCAARRWGAAPRPYEGYYWGQGSQVTVSS | low polyreactivity
11 | QVQLVESGGGLVQAGGSLRLSCAASGNIFQRYAMGWYRQAPGKERDLVAAISYSGARTYYADSVKGRFTISRDNAKNTDYLQMNSLKPEDTAVYYCATYGGLTKFRLAYDYWGQGTQVTVSS | high polyreactivity
12 | QVQLVESGGGLVQAGGSLRLSCAASGNIFRAYAMGWYRQAPGKERELVARISASGGSTYYADSVKGRFTISRDNAKNTVYLQMNSLKPEDTAVYYCAARVRVRLGRNWSSYYYWGQGTQVTVSS | high polyreactivity
13 | QVQLVESGGGLVQAGGSLRLSCAASGNIFRGYTMGWYRQAPGKERELVATITWNGVSTFYADSVKGRFTISRDNAKNTVYLEMNSLKPEDTAVYYCAAYYPSHDYSGFWSDTYEYWGQGTQVTVSS | low polyreactivity
14 | QVQLVESGGGLVQAGGSLRLSCAASGNIFRGYTMGWYRQAPGKERELVATITWNGVSTFYADSVKGRFTISRDNAKNTVYLQMNSLIPEETAVYYCPAYYPSHDYSGVWSDTYEYWGQGTQVTVSS | low polyreactivity
15 | QVQLVESGGGLVQAGGSLRLSCAASGNIFRINGMGWYRQAPGKERELVASITRSGSTYYADSVKGRFTISRDNANNTVYLKMNSLKPEDTAVYYCAADSRRYGVRFDYWGQGTQVTVSS | low polyreactivity
16 | QVQLVESGGGLVQAGGSLRLSCAASGNIFRKNAMGWYRQAPGKERELVAAISRRGGNTYYADSVKGRFTISRDNAKNTVYLQMNSLKPEDTAVYYCAADWSPTAASDYWGQGTQVTVSS | high polyreactivity

Row | Sequence | polyreactivity (PSR sort gate)
17 | QVQLVESGGGLVQAGGSLRLSCAASGNIFRPYTMGWYSQAPGKERQLVARISSGGSTNYADSVKGRFTISRDNAKNTVYLQMNSLKPEDTAVYYCAKRYGTVHSRYGYWGQGTQVTVSS | high polyreactivity
18 | QVQLVESGGGLVQAGGSLRLSCAASGNIFRRYAMGWYRQAPGKERELVAAISRGGTRTYYADSVKGRFTISRDNAKNTVYLQMNSLKPEDTAVYYCNAEVKTNYRIADYDYWGQGTQVTVSS | high polyreactivity
19 | QVQLVESGGGLVQAGGSLRLSCAASGNIFRYYVMGLYRQAAGKEREFVAAITSSGGSTYYADSVKGRFTISRDNAKKTVYLQMNSLKPEDTAVYYCAKDYWDPGWAEYDYWGQGTQVTVSS | low polyreactivity
20 | QVQLVESGGGLVQAGGSLRLSCAASGNIFSTYAIGWTRQAPGKERELVASISENGGSTYYADSVKGRFTISRDNAKNTVYLQMNSLKPDDTAVYYCAKGQLYSLFFQHDAPYRYGYWGQGTQVTVSS | low polyreactivity
21 | QVQLVESGGGLVQAGGSLRLSCAASGNIFSWYAKGWYRQAPGKERELVAAITSGGRTYYADSVKGRFTISRDNAKNTVYLQMNSLKPEDTAVYYCNAVSRLYNRRDYWVQGTQVTVSS | high polyreactivity
22 | QVQLVESGGGLVQAGGSLRLSCAASGNIFTYNTMGWYRQAPRKERELVAAISSGGSTYYADSVKGRFTISRDNAKNTVYLQMNSLKPEDTAVYYCNRRRWLWQTARGDYWGQGTQVTVSS | high polyreactivity
23 | QVQLVESGGGLVQAGGSLRLSCAASGNIFVRYAMGWYRQAPGKERELVAAISRGGRTNYADSVKGRFTISRDNAKNTVYLQMNSLKPEDTAVYYCAADVRYHFYYWGQGTQVTVSS | high polyreactivity
24 | QVQLVESGGGLVQAGGSLRLSCAASGNIFVWYDMGWYREAPGKERELVATITSSGGSTYYADSVKGRFTISRDNAKNTVYLQMNSLKPEDTAVYYCNALPYYRDDYWGQGTQVTVSS | low polyreactivity
25 | QVQLVESGGGLVQAGGSLRLSCAASGNIFWRYGMGWYRQAPGKERELVAAITSGGTGTYYADSVKGRFTISRDNAKNTVYLQMNSLKPEDTAVYYCAARRWTNHYFYGWFYYWGQGTQVTVSS | high polyreactivity
26 | QVQLVESGGGLVQAGGSLRLSCAASGNIFWWNAMGWYRQAPGKERELVAAITSDSTTYYADSVKGRFTISRDNAKNTVYLQMNSLKPEDTAVYYCNTVAYLRRFDKWGMNYWGQGTQVTVSS | low polyreactivity
27 | QVQLVESGGGLVQAGGSLRLSCAASGNIFYPNAMGWYRQAPWKERELVARISWRGVSTYYADSVKGRFTISRDNAKNNVYLQMNSLKPEDTEVYYCNVRPYYGRTRIKYDYWGQGTQVTVSS | high polyreactivity
28 | QVQLVESGGGLVQAGGSLRLSCAASGNIFYRYPMGWYRQAPGKEREMVAAISRSGGSTYYADSVKGRFTISRDNAKNSVYLQRNSLKPEDTAVYYCAAEYQGFWWYGDYDYWGQGTQVTVSS | high polyreactivity
29 | QVQLVESGGGLVQAGGSLRLSCAASGNIFYTNAMGWYRQAPGKERELVAAISGSGGRTYYADSVKGRFTISRDNAKNTVYLQMNSLKPEDTAVYYCNAVRREYYDRTYGYWGQGTQVTVSS | low polyreactivity
30 | QVQLVESGGGLVQAGGSLRLSCAASGNIFYVYAMGWYRQAPGKERELVAVISRNDGSTYYADSVKGRFTISRDNAKNTVYLQMNSLKPEDTAVYYCNAEWYFWGQGTQVTVSS | low polyreactivity
31 | QVQLVESGGGLVQAGGSLRLSCAASGNIISTYAMGWYRQAPGKERELVAAITSSSARTYYADSVKGRFTISRDNAKNTVYLQLNSLKPEDTAVYYCATRTGIRQDLVHLYRVYYWGQGTQVTVSS | high polyreactivity
